Target: cynomolgus monkey FGF19 (cynomolgus monkey)
Assay: SPR

cynomolgus monkey FGF19 (cynomolgus monkey), sequence (chain, as listed by the source): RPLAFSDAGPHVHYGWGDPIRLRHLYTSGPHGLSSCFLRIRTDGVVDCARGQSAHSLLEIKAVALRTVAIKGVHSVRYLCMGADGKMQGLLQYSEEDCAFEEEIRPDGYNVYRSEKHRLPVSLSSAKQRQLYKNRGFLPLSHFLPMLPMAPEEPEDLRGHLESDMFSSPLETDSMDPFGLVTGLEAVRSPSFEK

B1: G1A8 (anti-FGF19 human IgG1 antibody, affinity-improved from 31A3) (antibody, V domains shown)
VH: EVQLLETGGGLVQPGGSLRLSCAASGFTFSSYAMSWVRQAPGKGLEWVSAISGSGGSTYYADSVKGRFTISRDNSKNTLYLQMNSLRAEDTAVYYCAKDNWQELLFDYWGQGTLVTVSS
VL: QAGLTQPASVSGSPGQSITISCTGTSSDVGGYNYVSWYQQHPGKAPKLMIYDVSNRPSGVSDRFSGSKSGNTASLTISGLQTEDEADYYCSSWTRSSGLVFGGGTQLTVLG
B1 showed a Kd of 1.63 nM.
